The values below come from US20190202901A1 (PIERRE FABRE MEDICAMENT, published 2019).

The target in assay [1] is T1, human IGF-1R, native, on cells (MCF-7, hIGF-1R transfected cells, tumor sections, primary normal cells) (human, UniProt P08069 31-1367). Description: cell-based or functional assay.
Assay [2] deals with T1, human IGF-1R, native, on cells (MCF-7, …). In words: cell-based or functional assay. The source holds these as a separate data set.
For assay [3], the target named is T2, monkey IGF-1R on COS-7 cells (monkey (African green monkey)). Description: cell-based or functional assay.
Assay [4] has as its target T1, human IGF-1R, native, on cells (MCF-7, …). Description: cell-based or functional assay. The source holds these as a separate data set.
For assay [5], the target named is T3, soluble recombinant human IGF-1R hetero-tetramer with C-terminal 10-His tag (R&D Systems 305-GR-50) (human, UniProt P08069 31-736; P08069 741-932).
T3 construct: domain: alpha chain;domain: extracellular domain of the beta chain; Captured on an anti-His antibody chip; also called recombinant soluble human-IGF-1R; h-IGF-1R
In words: SPR Biacore X100, Ln(2)/koff. The procedure:
(§1) The dissociation constants (KD) of the binding of the antibodies on a recombinant soluble human-IGF-1R were defined by the ratio between the dissociation rate (koff) and the association rate (kₒₙ). The kinetic experiments were run on a Biacore X100 device using a CM5 sensor chip activated by a mouse anti-Tag His monoclobnal antibody. Around 12000 RU of antibodies are chemically grafted on the carboxymethyldextan matrix using the amine kit chemistry.
(§2) The experiments were carried out at 25° C. with a flow rate of 30 μl/min using the HBS-EP+ buffer (GE Healthcare) as the running and sample dilution buffer.
The single cycle kinetic scheme was used to define the kinetic parameters of the binding of the anti-IGF-1R antibodies on a soluble recombinant human IGF-1R captured by its two C-terminal 10 Histidine-tag. [0637] 1—A solution of a soluble recombinant version of the human IGF-1R hetero-tetramere: 2a chains and the extracellular domains of 2β chains expressed with an additional C-terminal 10-His tag (R&D Systems catalogue number 305-GR-50) was injected during one minute on the second flowcell at a concentration of 10 μg/ml. […] [0638] 2—After the capture phase, either the running buffer was injected 5 times (90 s each injection) or a growing range of 5 concentrations of one of the six antibodies was injected (90 s each injection) on both flowcells. […]
In general terms: In SPR one partner is held on a chip, and binding of the other changes the refractive index at the surface.

The target in assay [6] is T3, soluble recombinant human IGF-1R …. In words: SPR Biacore X100, His-captured recombinant human IGF-1R. As to the method: (§3) The recognition experiments were run on a Biacore X100 device using a CM5 sensor chip activated by an anti-Tag His antibody (His capture kit GE Healthcare catalogue number 28-9950-56). More than 11000 RU of antibodies are chemically grafted on the carboxymethyldextan matrix using the amine kit chemistry. The experiments were carried out at 25° C. with a flow rate of 30 μl/min using the HBS-EP buffer (GE Healthcare) as the running and sample dilution buffer.
(§4) A solution of a soluble recombinant version of the IGF-1R hetero-tetramere composed of 2a chains and the extracellular domains of 2β chains expressed with an additional C-terminal 10-His tag, based either on the sequence of the human (R&D Systems catalogue number 305-GR-50) or of the one of cynomolgus (produced in house) was injected 1 minute on the second flowcell at a dilution defined to capture around 160 RU of antigen. […] At the end of the fifth injection the running buffer was passed in order to define the dissociation rate.
(§5) The resulting sensorgrams were analysed using the Biaevaluation software with a 1:1 model. […] The quality of the fitting was assessed by a Chi2/Rmax ratio lower than 0.05 RU.

In assay [7] the target is T4, soluble recombinant cynomolgus IGF-1R hetero-tetramer with C-terminal 10-His tag (produced in house) (cynomolgus monkey).
T4 construct: domain: alpha chain;domain: extracellular domain of the beta chain; Produced in house; also called Macaca IGF-1R; soluble monkey IGF-1R ECD
In words: SPR Biacore X100, His-captured recombinant cynomolgus IGF-1R. As to the method:
as §3, §4, §5

The target of assay [8] is T3, soluble recombinant human IGF-1R …. Description: SPR Biacore X100, His-captured soluble h-IGF-1R (about 600 RU), mean of 4 experiments. The procedure: as §1, §2
The single cycle kinetic scheme was used to define the kinetic parameters of the binding of the anti-IGF-1R antibodies on a soluble recombinant human IGF-1R captured by its two C-terminal 10 Histidine-tag. [0637] 1—A solution of a soluble recombinant version of the human IGF-1R hetero-tetramere: 2a chains and the extracellular domains of 2β chains expressed with an additional C-terminal 10-His tag (R&D Systems catalogue number 305-GR-50) was injected during one minute on the second flowcell at a concentration of 10 μg/ml. […] [0638] 2—After the capture phase, either the running buffer was injected 5 times (90 s each injection) or a growing range of 5 concentrations of one of the six antibodies was injected (90 s each injection) on both flowcells. At the end of the fifth injection the running buffer was passed during 5 minutes in order to define the dissociation rate. [0639] 3—The surface was then generated with an injection of a 10 mM Glycine, HCl pH 1.5 buffer during 45 s.

Assay [9] has the same target. In words: SPR Biacore X100, single cycle kinetics, His-captured human IGF-1R (about 160 RU), 1:1 model. As to the method:
as §3, §4, §5

In assay [10] the target is T2, monkey IGF-1R on COS-7 cells. In words: FACS titration on Cos-7 cells. The procedure:
(§6) The binding properties of the humanized variants were evaluated by FACS analyses on the human MCF-7 breast adenocarcinoma cell line and the monkey cell line Cos-7 using increasing antibody concentrations. For that purpose, cells (1×10⁶ cells/ml) were incubated with anti-IGF-1R antibodies for 20 min. at 4° C. in FACS buffer (PBS, 0.1% BSA, 0.01% NaN3). They were then washed 3 times and incubated with the appropriate secondary antibody coupled with Alexa 488 for 20 additional minutes at 4° C. in the dark before being washed 3 times in FACS buffer. The binding of anti-IGF-1R antibodies was immediately performed on viable cells which were identified using propidium iodide (that stains dead cells). The EC₅₀ of binding expressed in molarity (M) was calculated using a nonlinear regression analysis (GraphPad Prims 4.0).

The target in assay [11] is T1, human IGF-1R, native, on cells (MCF-7, …). In words: FACS titration on MCF-7 cells. The procedure:
as §6

Assay [12] has the same target. Description: FACS titration on MCF-7 cells, 4 C, secondary antibody, MFI; EC50 table inside the plot.
Assay [13] has as its target T2, monkey IGF-1R on COS-7 cells. In words: FACS titration on COS-7 cells, 4 C, secondary antibody, MFI; EC50 table inside the plot.
Assay [14] has as its target T5, human insulin receptor on cells (IM9 cells, hIR+ transfected cell line) (human, UniProt P06213 28-1382).
T5 construct: whole, on cells; also called human IR
Description: FACS titration on NIH 3T3 IR+ cells (human insulin receptor transfected), 4 C, secondary antibody, MFI.

Like-named read-outs stand apart in the source and are kept apart here.

B1: c208F2 (antibody, human IgG1, kappa, V domains shown)
VH: QVQLQQSGPELVKPGASVKMSCKASGYTFTSYYIYWVKQRPGQGLEWLGWIWPGDGSTKYNEKFKDKTTLTADKSSNTAYMFLSSLTSEDSAVYFCASPMITPNYAMDYWGQGASVTVSS
VL: DIQMTQTTSSLSASLGDRVTISCRASQDISKYLNWYQQQPDGTIKLLIYYTSRLHSGVPSRFSGRGSGTDYSLTISNVEQEDIATYFCQQGSTLPYTFGGGTKLEIKR
notes: also called chimeric 208F2; chimeric form of the 208F2 second IGF-1R antibody
The Kd is the free concentration of one partner at which half of the binding sites on the other are occupied at equilibrium, for simple one-to-one binding. As for B1, the “phosphorylation of hIGF-1R, % of phosphorylation induced by IGF-1 (MCF-7 cells, 10 µg/ml)” value in assay [1] was under 10%. Also, the “ΔMFI (MCF-7, 10 µg/ml, 4 h)” value in assay [2] was found to be 288 MFI; in assay [4] it was 278 MFI. In [3], the “% internalisation (monkey IGF-1R)” value worked out at 67%. Further, the “ΔMFI (monkey IGF-1R internalization)” value in [3] turned out to be 52 MFI. The “% internalization (MCF-7, 10 µg/ml, 4 h)” value in [4] came out at 82%. In addition, the “half-life of the complex” value in assay [5] fell in the range of 2 to 3 h. Moreover, the Kd in assay [6] was about 0.2 nM; in [7] it was about 0.2 nM; in assay [8], about 0.075 nM; in assay [9] it was 0.23 nM.

B2: hz208F2 H026/L024 (antibody, human IgG1, kappa, V domains shown)
VH: QVQLVQSGAEVKKPGASVKMSCKASGYTFTSYYIYWVKQAPGQGLEWLGWIWPGDGSTKYNEKFQGRVTLTADKSSNTAYMFLSSLRSEDTAVYFCASPMITPNYAMDYWGQGTLVTVSS
VL: DIQMTQSPSSLSASVGDRVTISCRASQDISKYLNWYQQKPGKAPKLLIYYTSRLHSGVPSRFSGRGSGTDYSLTISNLQPEDFATYFCQQGSTLPYTFGGGTKVEIKR
notes: also called hz208F2 VH3/VL3; hz208F2 VH3VL3
As usually defined, the EC50 is the concentration that produces a half-maximal response. With B2, the “% internalization (MCF-7, 10 µg/ml, 4 h)” value in [4] was 87%. The “ΔMFI (MCF-7, 10 µg/ml, 4 h)” value in [4] turned out to be 344 MFI. In addition, the “half-life of the complex” value in assay [5] lay in the range of 2 to 3 h. For the same molecule, the EC50 in assay [10] turned out to be 0.51 nM; in assay [11], 0.709 nM; in assay [12], 0.71 nM; in assay [13], 0.511 nM. Further, the Kd in assay [8] is about 0.06 nM. In assay [14], the binding result was “no binding (tested: log [M] about -7.2 (about 6e-8 M))”.
